Data as given in article PMC10733476, “OsDWARF10, transcriptionally repressed by OsSPL3, regulates the nutritional metabolism of polished rice”.

Target: T1, OsSPL3 (Oryza sativa (indica, Minghui63; stated …, UniProt A2X0Q6 1-469)
T1 sequence: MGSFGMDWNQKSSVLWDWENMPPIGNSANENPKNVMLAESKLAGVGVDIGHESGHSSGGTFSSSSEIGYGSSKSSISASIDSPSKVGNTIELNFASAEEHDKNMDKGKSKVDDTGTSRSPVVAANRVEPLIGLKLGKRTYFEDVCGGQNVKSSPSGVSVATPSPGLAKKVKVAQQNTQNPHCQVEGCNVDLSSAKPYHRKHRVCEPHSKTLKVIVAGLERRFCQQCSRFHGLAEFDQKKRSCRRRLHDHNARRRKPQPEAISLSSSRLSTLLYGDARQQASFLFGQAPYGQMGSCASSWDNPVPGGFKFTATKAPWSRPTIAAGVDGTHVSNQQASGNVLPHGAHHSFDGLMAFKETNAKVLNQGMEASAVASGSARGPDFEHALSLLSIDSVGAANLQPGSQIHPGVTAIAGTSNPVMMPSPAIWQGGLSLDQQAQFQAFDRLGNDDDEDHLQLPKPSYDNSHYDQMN
Assay: EMSA; EMSA binding buffer (as printed, probably a concentrated stock): 125 mM Tris-HCl pH 8.0, 750 mM NaCl, 25 mM MgCl2, 100 mg/mL BSA, 50% glycerol, 5 mM DTT, 125 ng/uL salmon sperm DNA; 25 C, 20 min; 6% PAGE in 0.5x TG
Conditions: protein: recombinant; tags: N-terminal 6xHis (pET28A); label: 5' FAM on F strand; blunt

B1: D10 S1 (dsDNA)
DNA 1: CTCACACATGCTACTGATGATGTACGTACGGACGTTACGTAGCGCGCGGG
DNA 2: CCCGCGCGCTACGTAACGTCCGTACGTACATCATCAGTAGCATGTGTGAG
B1: binds.

B2: D10 S2 (dsDNA)
DNA 1: CCACGCCCCACGTAACGTAGCGTACAGTGTACACCTGATTTCGCTCGGTC
DNA 2: GACCGAGCGAAATCAGGTGTACACTGTACGCTACGTTACGTGGGGCGTGG
B2: binds.
